Tests used:
[1] = target: SARS-CoV-1 spike on pseudovirus (SARS-CoV-1) (UniProt P59594); assay: cell-based or functional assay
[2] = target: SARS-CoV-2 spike on pseudovirus or live virus (USA-WA1/2020, WT) (SARS-CoV-2) (UniProt P0DTC2); assay: cell-based or functional assay

Row | Substance | PSV in HeLa-ACE2 cells IC50 [1] [ng/mL] | PSV in HeLa-ACE2 cells IC50 [2] [ng/mL] | live virus IC50 (HeLa-ACE2) [2] [ng/mL] | live virus IC50 (Vero) [2] [ng/mL]
1 | REGN10933 (antibody) | > 25000 | 6 | 2 | 1
2 | REGN10987 (antibody) | > 25000 | 93 | 5 | 1
